Results from patent US20230193513A1.

Target: glucagon-like peptide-1 receptor (GLP1R) (Homo sapiens (Human)) (UniProt P43220)
Experiment: cell-based or functional assay

Chain of glucagon-like peptide-1 receptor (GLP1R) (Homo sapiens (Human)) (P43220 24-463): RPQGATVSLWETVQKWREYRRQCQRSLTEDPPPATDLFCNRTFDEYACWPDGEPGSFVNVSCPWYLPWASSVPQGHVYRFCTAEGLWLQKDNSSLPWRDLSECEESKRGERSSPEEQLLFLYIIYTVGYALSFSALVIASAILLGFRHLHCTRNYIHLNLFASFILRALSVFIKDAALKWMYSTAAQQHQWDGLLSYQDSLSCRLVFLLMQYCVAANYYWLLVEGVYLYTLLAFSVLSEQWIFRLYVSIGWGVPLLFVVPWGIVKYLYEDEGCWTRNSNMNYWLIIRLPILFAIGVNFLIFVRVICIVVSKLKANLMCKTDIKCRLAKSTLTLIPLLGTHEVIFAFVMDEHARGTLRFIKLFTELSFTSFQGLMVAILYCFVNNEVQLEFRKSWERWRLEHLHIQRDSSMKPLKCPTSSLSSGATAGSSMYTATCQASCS

| EC50 (nM) of the IgG as agonist, functional assay on GLP-1R overexpressing cells [nM] | EC50 (nM) of Exendin-4 induced cAMP activity with the antibody [nM] | EC50 (nM) of GLP1 (7-36)-induced signaling with GLP1R IgG (+100 nM) [nM] | fold difference of the EC50 against no antibody [fold] | fold-diff of the Exendin-4 EC50 against Exendin-4 alone [fold] | Binder |
| --- | --- | --- | --- | --- | --- |
| 0.821 | – | – | – | – | GLP1R-59-243 (antibody, part only; not given: light chain, part only) heavy: QVQLVQSGAEVKKPGSSVKVSCKASGGTFSTYGINWVRQAPGQGLEWMGGIIPIFGTANYAQKFQGRVTITADESTSTAYMELSSLRSEDTAVYYCARANQHFFGKGDNLAARDFINWLIQTKITDGSNPGYHYYGMDVWGQGTLVTVSSASASTKGPSVFPLAPCSRSTSESTAALGCLVKDYFPEPVTVSWNSGALTSGVHTFPAVLQSSGLYSLSSVVTVPSSNFGTQTYTCNVDHKPSNTKVDKTVERKCCVECPPCPAPPVAGPSVFLFPPKPKDTLMISRTPEVTCVVVDVSHEDPEVQFNWYVDGVEVHNAKTKPREEQFNSTFRVVSVLTVVHQDWLNGKEYKCKVSNKGLPAPIEKTISKTKGQPREPQVYTLPPSREEMTKNQVSLTCLVKGFYPSDIAVEWESNGQPENNYKTTPPMLDSDGSFFLYSKLTVDKSRWQQGNVFSCSVMHEALHNHYTQKSLSLSPG |
| 0.722 | – | – | – | – | GLP1R-59-241 (antibody, part only; not given: light chain, part only) heavy: QVQLVQSGAEVKKPGSSVKVSCKASGGTFSDYAISWVRQAPGQGLEWMGGIIPIFGTTNYAQKFQGRVTITADESTSTAYMELSSLRSEDTAVYYCAKHMSMQGSVAGGTFTSDVSSYLEGQAAKEFIAWLVKGGPSFIRADLVGDAFDVWGQGTLVTVSSASASTKGPSVFPLAPCSRSTSESTAALGCLVKDYFPEPVTVSWNSGALTSGVHTFPAVLQSSGLYSLSSVVTVPSSNFGTQTYTCNVDHKPSNTKVDKTVERKCCVECPPCPAPPVAGPSVFLFPPKPKDTLMISRTPEVTCVVVDVSHEDPEVQFNWYVDGVEVHNAKTKPREEQFNSTFRVVSVLTVVHQDWLNGKEYKCKVSNKGLPAPIEKTISKTKGQPREPQVYTLPPSREEMTKNQVSLTCLVKGFYPSDIAVEWESNGQPENNYKTTPPMLDSDGSFFLYSKLTVDKSRWQQGNVFSCSVMHEALHNHYTQKSLSLSPG |
| – | 0.63 | 1.31 | 2.2 | 5.4 | GLP1R-3 (antibody, from a related filing, V domains shown, part only) VH: QVQLVESGGGVVQPGRSLRLSCAASGFTFSSYGMHWVRQAPGKGLEWVSFISYDESNKYYADSVKGRFTISRDNSKNTLYLQMNSLRAEDTAVYYCAKHMSMQEGAVTGEGQAAKEFIAWLVKGRVRADLVGDAFDVWGQGTLVTVSS VL: QSVLTQPPSVSAAPGQKVTISCSGSSSNIADNYVSWYQQLPGTAPKLLIYDNNKRPSGIPDRFSGSKSGTSATLGITGLQTGDEADYYCGTWDNYLGAGVFGGGTKLTVLG |
